This note sets out measurements from publication PMC2796084 (Biochemistry, 2009).

The data set deals with the molecule itself. Briefly: tryptophan fluorescence.

B1: FtsZ-L68W (natural protein, E. coli, UniProt P0A9A6 1-383, looked up)
chain: MFEPMELTNDAVIKVIGVGGGGGNAVEHMVRERIEGVEFFAVNTDAQALRKTAVGQTIQIGSGITKGWGAGANPEVGRNAADEDRDALRAALEGADMVFIAAGMGGGTGTGAAPVVAEVAKDLGILTVAVVTKPFNFEGKKRMAFAEQGITELSKHVDSLITIPNDKLLKVLGRGISLLDAFGAANDVLKGAVQGIAELITRPGLMNVDFADVRTVMSEMGYAMMGSGVASGEDRAEEAAEMAISSPLLEDIDLSGARGVLVNITAGFDLRLDEFETVGNTIRAFASDNATVVIGTSLDPDMNDELRVTVVATGIGMDKRPEITLVTNKQVQQPVMDRYQQHGMAPLTQEQKPVAKVVNDNAPQTAKEPDYLDIPAFLRKQAD
Take B1: the binding result was “binds”.
